Reference: patent publication US20160368985A1 (published 2016)

Biological target: 7D8.RbIgG
Assay: SPR (Biacore)

Kd: 1.89 nM
B1: CyFcRH5 (receptor)
chain: QFVRTYKSHFLQPPWTTVFRGERVNLTCKGFGFYSSQKTKWYYRHLGKEISRETQKNTLEVQESGEYRCQAQGSPLSSPVSLDFSSASLILQAPLSVFEGDSVVLRCRAKAEVTLKTTIYKNENVLAFLNKSTDFHISHASLKDNGAYRCTGYKETCCLVSSNTVKIQVQESFTRPVLRVSSFQPISGSPVTLTCETQLSLERSDVPLQFCFFRNDQMLGSGCSLSPKFRITAMWSKDSGSYWCKAATMCYDTTSNSLRSWIQVLIPASHPVLTLSPEKALNFEGTKVKLHCETQEDSLRTLYKFYHDGVPLRYKSVRCEKGASISFSLTTEHSGNYYCTADNGHGAKPSEAVSLSVTVPVSRPVLTLSSAEDLISEGAKLTLHCEAQRGSLPIVYQFHHENASLGNRSAHSAGGVAISFSLTADHSGNYYCTANNGFGPQRSEAVSLSITVPVSRPVLTLSSAEALTFEGATVTLYCEVQRGSPRILYQFYHEDVPLGSNSTPSVGKVSFSFSLTAAHSGNYYCTADNGFGPQRSEAVSLFVTVPVSRPILTLRVPRAQAVVGDLLELRCEALRGSPPIMYWFYHEDVTLGSSSVPSGGEASFNLSLTAEHSGNYSCEANNGLVAQHSDTISLSVIVPVSRPILTFRAPRAQAVVGDLLELHCEALRGSSPILYWFYHEDVTLGKISAPSGGGAYFNLSLTTEHSGIYSCEADNGLEAQRSEMVTLKVAVPVSRPVLTLRAPRAQVAVGDLLELHCEALRGSPLILYQFYHEDVTLGNSSALSGGAFFNLSLTAEHGNYSCEADNGLGAQRSETVTLYLTGLTENRSGPVATG
